Source: the nanobody polyreactivity screen of Harvey et al. (2022)

Test: yeast display, Sf9 membrane polyspecificity reagent, FACS + sequencing; frameworks hold sequencing errors
Summary of the method: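 After 36–48 hours of galactose induction, yeast (Saccharomyces cerevisiae BJ5465) displaying a synthetic nanobody library were stained at 4 °C for 1 hour with 10% biotinylated, detergent-solubilized Sf9 membrane reagent. Streptavidin microbeads enriched the stained cells before FACS sorting into low and high (top ~1%) gates on anti-HA and streptavidin fluorescence. Each clone's polyreactivity label reflects its gate of origin.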

| Sequence | polyreactivity (PSR sort gate) |
| --- | --- |
| KVQLVESGGGFVQAGGSLRLSCAPSGSIFTWNAMGLYRQAPGKERELVAAITRGGSTYADSVKGRFTLSRDNAKNTVYLQMNSLKPEDTAVYYCNAVYGVYEFNYWGQGTQVTVSS | low polyreactivity |
| KVQLVESGGGLVHAGGSLRLSCAASGRIIYYYAMGWYRTAPGKERELVAAISGRGTSTYYADSVKGRFTISRDNAKNTVYLKMNSLKPEDTAVYYCAARYYYWGQGTQVTVSS | high polyreactivity |
| KVQLVESGGGLVHAGGSLRLSCAASGRTLYTNAMGWYRQAPGTERELVAAITSGASTNYADSVKGRFTISRDNAKNTVYLQMNSLKPEDTAVYYCAARTDHLWNARRYDYWGQGTQVTVSS | low polyreactivity |
| KVQLVESGGGLVQAGGSIRLSCDASGRSFYYYAMGWYRQAPGKEREWVAAINTRGTSTYYADSVKGRFTISRDNAKNTVYLQMNSLKPEDTAVYYCAVDPYGDSWEDWFRNYYYGYDYWGQGTQGTVSS | low polyreactivity |
| KVQLVESGGGLVQAGGSLRLSCAASGIFLDRNAMGWYRQAPGKERELVAAINSIGGSTYYADSVKGRFTISRDNAKNTVYLQMNSLKPEDTAVFYCAAPSTSSYYWGQGTQVTVSS | low polyreactivity |
| KVQLVESGGGLVQAGGSLRLSCAASGNTFYHYAMGWYRQAPGKERELVAGIRYNGGSTYYADSVKGRFTISRDNAKNTVYLHMKSLKPEDTAVYYCATKGYTGYAYRYGYWGQGTQVTVSS | high polyreactivity |
| KVQLVESGGGLVQAGGSLRLSCAASGSIFDLYTMGWYRQAPGKERELVATISSGGSTNYADSVKGRFTISRDNAKNTVNLQMNSLKPEDTAVYYCAAGSTHYDIHFDYWGQGTQVTVSS | low polyreactivity |
| KVQLVESGGGLVQAGGSLRLSCAASGSIFTFNAMGWYRQAPGKERELVAAIRWSSGRTYYADSVKGRFTISRDNAKNTVYLQMNSLKPEDTAVYFCAAKDFGSFYESGYDYWGQGTQVTVSS | high polyreactivity |
| KVQLVESGGGLVQAGGSLRLSCAASGSNFVYNAMGWYRQAPGKEREFVAAISGSGGSTYYADSVKGRFTISRDNAKNTVYLQMNSLKPEDTAVYYCATAGRYGRYRTYPYRSKYDYWGQGTQVTVSS | high polyreactivity |
| KVQLVESGGGLVQAGGSLRLSCAPSGRTFRSNGMGWYIQAPGKERELVATISEGGGSTYYADSVKGRFTISRDNAKNTVYLEMISLKPEDSAVYFCAADKWYVLHYLDMNYWGQGTQVTVSS | high polyreactivity |
| KVQLVESGGVLVQAGGSLRLICAASGRTFYGYAMGWSRQAPGKERELVAGITSGGSTTYADSVKGRFTISRDHAKKTVYLQMNSLKPEDTAVYYCAKKWYRTTRAYVFRSYDYWGQGTQVTVSS | high polyreactivity |
| KVQLVESGLGLVQAGGSLRISCAASGSIFTQYTMGWYRQAHGKERELVASISDSGGSTYYADSVKGRFTISRDNAKNTVYLQMNSLKPEDTSVYYCASRHDRPRESNPYDYWGQGTQVTVSS | low polyreactivity |
| KVQRVDSGGGLVQAGGSLRLSCAASGSILGPYAMGWYRQAPGKERELVAGISGSGTRTYYADSVKGRFTISRDNAKNTVYLQMNSLKPEDTAVYYCAARYYSSWFRYPSYDYWGQGTQVTVSS | high polyreactivity |
| KVQVVESGGGLVQAGGSLRLSCAASGRIFGVYAMGWYRQAPGKERELVAAINYSGTRTYYADSVKGRFTISRDNAKNTVYLQMNSLKPEDSAVYYCAARRGSYSVTEYWGQGTQVTVSS | high polyreactivity |
| LVQHVQSGGGLVQAGGSLRVSCAASGPTLDSNAMGWYRQAPGKERELVAAISSAGSTNYPDSVKGRFTISRDNAKNTVYLQMNSLKPEDTAVYYSAADLIGSHDYWGQGTQVTVSS | low polyreactivity |
| LVQLQERVGVLVQAGGRLRLNCAASGTISPGGYMGWYRQAPGKELELVASINVGGSTNYADSVKGRFTISRDNAKNTVYLQMNRLKPEDNAVYYCAVWGRNRLQLSYWGQGTQVTVSS | low polyreactivity |
| LVQLQESGGGLVQAGGSLRLSCAASGTISPGGYMGWYRQAPGQERELVASINVGGSTNYADSVKGRFTISRDNAKNPVDLQMNSLKPEDNAVYYCAVWGRNRLQLSYWGQGTQVTVSS | low polyreactivity |
| LVQLVESGGGLVQAGGSLRLSCAASGFIFFGEYVMGWYRQAPGKEREFVAAITDSDGSTYYADSVKGSFTISRDNGKNTVYLQMISLKPEDTAVYYCAAERVYSDMDYWGQGTQVTVSS | low polyreactivity |
| LVQLVESGGGLVQAGGSLRLSCAASGFISPSYALGWYRQAPGKERELVAAIRSSDGSTYYADSVKGRFTISRDNAKNTAYVQMNSRKPEDTAVYYCAAGGSSYRDDYWGQGSQVTVSS | low polyreactivity |
| LVQLVESGGGLVQAGGSLRLSCAASGSICNANAMGWYRQAPGKERELVAGIRSGSSTNYADSVKGRVTISRDNAKNTVYLQMNSLKPEDTPVYYCATEGYWVYGFDDEYWGQGTQVTVSS | low polyreactivity |
| LVQLVESGGGLVQAGGSLRLSCAASGSTFDGYAMGWYRQAPGKERELVAAIAYSGSSTYYADSVTGRFTISRDNSKNTVYIQMNSQKQEDTAVYYCAVDDTHPFGPDGGGDYWGQGTQVTVSS | low polyreactivity |
| NVQLVESGGGLVQAGGSLRLSCAASGRTFPTYAMGWYRQAPGKERELVAAISSSGGSTYYADSVKGRFTISRDNAKNTVYLQMNSLKPEDTAVYYCAALRARNLNPGYDYWGQGTQVTVSS | low polyreactivity |

| Sequence | polyreactivity (PSR sort gate) |
| --- | --- |
| PLQLVESGGGLVQAGGSLRLSCAATGFIFAVNAMGWYRQAPGKERELVAAISSSGTTNYADSVKGRFTISRDNAKNTVYLQMNSLKPEDTAVYYCAADYHGSPEYDYWGQGTQVTVSS | low polyreactivity |
| PVKLVESGGGLVQAGGSLRLSCAASGFTFFRNAMGWYRQAPGKERELVAAISGSGGRTYDADSVKGRFTISRDNAKNPVYLQLNSLKLEDTAVYYCAAVPVDPGYDYWGQGTQVTVSS | high polyreactivity |
| PVQLQESGGGLVQAGGSLRLSCAASGNIFDADIMGWYRQAPGKERELVACIADGGSTNYADSVKGRFTISRDNAKNTVYLQMNSLKPEDTAVYYCAAIAYPDIPTCFDYDSDYFIRGQGTQVTVSS | low polyreactivity |
| PVQLVEAGGGLVQAGGSLRLSCAASGFTIRIYTMGWYRQAPGKERELVAAISSRGGSTYYADSVKGRFTISRDNAKITVYLQMNSLKPEDTAVYYCAKTPYYRYAKQRYTSSHDYWGQGTQVTVSS | high polyreactivity |
| PVQLVESGGGLVQAGGSLRISCAASGRSFYVYAMGWYRQAPGKEREFVARITSNGGSPTYADSVKGRFTISRDKAKNTVYLQMNSLKPEDTAVYYCNADDGIHPNASPSFPQYDYWGPGTQVTVSS | low polyreactivity |
| PVQLVESGGGLVQAGGSLRLSCAAAGLTFPPNAMGWYRQAPGKERELVADSGGSTNYADSVKGRFTISRDNAKNTVYLQMNSLNPEDTAVYYCAVPPYSDGQWDDYWGQGTQVTVSS | low polyreactivity |
| PVQLVESGGGLVQAGGSLRLSCAASGFIFRRNAMGWYRQAPGKERELVASIRSGGSTKYADSVKGRFTISRDNAKNTVYLQMTSLKPEDTAVYYCNAEDPGYAVRWYWFKYDYWGQGTQVSVSS | low polyreactivity |
| PVQLVESGGGLVQAGGSLRLSCAASGNAMGWYRQAPGKERELVASINRSGGRTYYADSVKGRFTISRDNAKNTVYLQMNSLKPEDTAVYYCAARPHYDSDYWGQGTQVTVSS | low polyreactivity |
| PVQLVESGGGLVQAGGSLRLSCAASGRIFKPYAMGWYRQAPGKERELVAAISGSGTRTYYADSVKGRFTISRANAKNTVYLQMNSLKPEDTAVYFCAAAYYSTYRNRMDYWGQGTQVTVSS | high polyreactivity |
| PVQLVESGGGLVQAGGSLRLSCAASGRILPSNAMGWYRQAPGKERELVAGITSGGSTDYADSVKGRFTISRDNAKNTVYLQMNSLNPVDTAVYYCAARYFHHYWGDLEVEFEYWGQGTQVTVSS | low polyreactivity |
| PVQLVESGGGLVQAGGSLRLSCAASGSIFPSYAMGWYRQAPGKERELVATIGRGGTTNYADSVKGRFTISRDNAKNTVYLQKNSLKPEDTGVYYCNAERIWRYKYGYDYWGQGTQVTVSS | high polyreactivity |
| PVQLVESGGGLVQAGGSLRLSCAASGSIFVTYAMGWYRQAPGKERELVATITYSGGSTSYADSVKGRFTISRDNAKNTVYLQMNSLKPEDTAVYYCAADLDSDFDYWGQGTQVTVSS | low polyreactivity |
| PVQLVESGGGLVQAGGSLRLSCADSGSIFRKYARGWYRQAPGKERELVAAITYGGSSTYYADSVKGRFTISRDNAKKTVYLQRNSLKPQDTAVYYFINDRPSYPAYGHTQYVVQMDYWGQGTQVTVSS | low polyreactivity |
| PVQLVESGGGLVQAGGSLRLTCAASGRIFTGYAMGWYRQAPGKERELVAAISRGGSTNYADSVKGRFTISRDNEKNTVYLLMNSLKPEDTAFYYCAAGFDWDRGDYWGQGTQVTVSS | low polyreactivity |
| PVQLVESGVCLVQAGGSLRLSCATPGSTIDFYAMGWYRQAPGKERELVARISSGGGRTYYADSVKGRFTISRDNAKNTVYLQMISLKPEDTAVYYCAAAYWYLDYYWGQGTQVTVSS | low polyreactivity |
| PVQLVVSGGGLVQAGGSLRLRGAASGSSFSQNAMGWSRPAPGKDRELVAAITSGGITYYADSVKGRFTISRDNAKNTVYLQMNSLKPEDTAVYDCAADYWPSGRGVAFDYWGQGTQVTVSS | low polyreactivity |
| PVQRVESGGGLVQAGGSLRLSCAASGRTFDSYAMGWYRQAPGKERELVAAISSRGTRTYYADSVKGRFTSSRDNAKNPVYLQINSLQPEDTAGYYCNAGGAYEYDYWGQGSQVTVSS | high polyreactivity |
| QAQLQESAGSLVQAGGGLRLSCAASGYISVGSVKGWYRQAPSKERELVASIDQGANTNYADSVKGRFTISRDNAKNNVYLQMNSLIPEDTAVYYCATETTYILNYWGQGTQVTVSS | low polyreactivity |
| QAQLQESGGGLVQAGGSLPRSCAPSGSIFRFSGMGWYRRAPGKERELVASIGFGSITYYEDRVKGRFTISRDNANNTVYLQMNSLKPEDTAVYYCAVQVQDDSWLDYWGQGTQVTVSC | low polyreactivity |
| QAQLQESRGSVVQAGLGLRLSCAASGYISVGSVMGWYRQAPSKERELVASIDQGANTNYADSVKGRFTISRDNAKNNVYLQMISLKPEDTEVYYCATETTYILNYWGQGSQVTVSS | low polyreactivity |
| QAQLVESGGGLVQAGGSLRLSCAASGSIFVAYDKGWYREAPWKERELVAAINFDGTSTYYADSVKGRFTISRDNAKNTVYLQMNSLKPEDTAVYYCNKRVSPTFTGQYDYWGQGTQVTVSS | low polyreactivity |
